Columns and labels:
BAZ2A = assay: BioID (streptavidin pulldown, LC-MS/MS); details: Flp-In T-Rex HEK293 cells; parent: est. 220; read off a plot
MBD3 = assay: BioID (streptavidin pulldown, LC-MS/MS); details: Flp-In T-Rex HEK293 cells; parent: est. 41; read off a plot
MBD4 = assay: BioID (streptavidin pulldown, LC-MS/MS); details: Flp-In T-Rex HEK293 cells; parent: est. 14; read off a plot
MECP2 = assay: BioID (streptavidin pulldown, LC-MS/MS); details: Flp-In T-Rex HEK293 cells; parent: est. 17; read off a plot
SUV39H2 = SUV39H2 (UniProt Q9H5I1); assay: proximity ligation assay (PLA); details: MO3.13 cells; n: EV = 14; H3.1WT = 36; H3.1K27M = 67; H3.3WT = 60; H3.3K27M = 62; parent: est. 1.2; read off a plot
Chain of UniProt Q9H5I1 (Q9H5I1 whole entry): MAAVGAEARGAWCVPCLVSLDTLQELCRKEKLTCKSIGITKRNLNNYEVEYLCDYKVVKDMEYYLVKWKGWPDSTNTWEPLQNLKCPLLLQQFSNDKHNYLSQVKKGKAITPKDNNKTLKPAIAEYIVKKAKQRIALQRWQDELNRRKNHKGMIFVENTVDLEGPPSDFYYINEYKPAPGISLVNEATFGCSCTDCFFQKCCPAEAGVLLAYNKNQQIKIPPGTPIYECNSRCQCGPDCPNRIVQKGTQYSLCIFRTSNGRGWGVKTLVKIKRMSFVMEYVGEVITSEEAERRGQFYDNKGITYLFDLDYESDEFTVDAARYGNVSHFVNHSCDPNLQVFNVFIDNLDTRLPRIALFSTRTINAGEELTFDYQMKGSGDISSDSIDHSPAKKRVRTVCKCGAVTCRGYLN

Substance | response (peptide count) (BAZ2A) | response (peptide count) (MBD3) | response (peptide count) (MBD4) | response (peptide count) (MECP2) | response (relative foci (relative to H3.3WT)) (SUV39H2)
H3.3WT (FLAG-BirA* fusion, BioID bait) (from UniProt P84243) G34R | 83 | 23 | 13 | 4.1 | 
H3.1WT-FLAG/HA (from UniProt P68431) K27M |  |  |  |  | 0.54
